The assay addresses Recombinant human Interleukin-18 (r-hIL-18) (human) (UniProt Q14116). The assay is described as follows: cell-based or functional assay.

Chain of Recombinant human Interleukin-18 (r-hIL-18) (human) (Q14116 37-193 limits assumed): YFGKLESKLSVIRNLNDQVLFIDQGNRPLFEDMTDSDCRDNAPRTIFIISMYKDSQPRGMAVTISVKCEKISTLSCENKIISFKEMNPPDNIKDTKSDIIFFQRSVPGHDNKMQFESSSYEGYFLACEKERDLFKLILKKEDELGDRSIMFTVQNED

In the case of “truncated form of r-hIL-18BP (serum-free produced drug substance batches ILNCT19-22) (from UniProt O95998 46-194)”, the Biological activity U/mL (KG-1 cells in vitro bioassay; bulk ILNCT19) was 949000 U/mL, the Biological activity U/mL (KG-1 cells in vitro bioassay; bulk ILNCT20) turned out to be 1.23e+06 U/mL, the Biological activity U/mL (KG-1 cells in vitro bioassay; bulk ILNCT21) was determined as 1.28e+06 U/mL and the Biological activity U/mL (KG-1 cells in vitro bioassay; bulk ILNCT22) came out at 1.35e+06 U/mL. Besides, the Specific activity U/mg (KG-1 cells in vitro bioassay; bulk ILNCT19) turned out to be 15400 U/mg, the Specific activity U/mg (KG-1 cells in vitro bioassay; bulk ILNCT20) was 21400 U/mg, the Specific activity U/mg (KG-1 cells in vitro bioassay; bulk ILNCT21) was determined as 20400 U/mg and the Specific activity U/mg (KG-1 cells in vitro bioassay; bulk ILNCT22) is 22500 U/mg.
As to “r-hIL-18BP bulks ILNCT23 and ILNCT24 (from UniProt O95998 31-194)”, the Biological activity U/mL (KG-1 cells in vitro bioassay; bulk ILNCT23) turned out to be 1.2e+06 U/mL, the Biological activity U/mL (KG-1 cells in vitro bioassay; bulk ILNCT24) worked out at 1.01e+06 U/mL, the Specific activity U/mg (KG-1 cells in vitro bioassay; bulk ILNCT23) amounted to 19800 U/mg and the Specific activity U/mg (KG-1 cells in vitro bioassay; bulk ILNCT24) was 17900 U/mg.

These data come from patent US20080076708A1.
